Experimental data: the nanobody polyreactivity screen of Harvey et al. (2022)

Assay: yeast display, Sf9 membrane polyspecificity reagent, FACS + sequencing; frameworks hold sequencing errors
Method in brief: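 Galactose induction of a Saccharomyces cerevisiae BJ5465 synthetic nanobody display library ran 36–48 hours. The cells were then stained for 1 hour at 4 °C with 10% biotinylated, detergent-solubilized Sf9 membrane reagent, pulled down on streptavidin microbeads and FACS-sorted into low and high (top ~1%) gates on expression and reagent-binding fluorescence. Labels for polyreactivity follow the gate of origin.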

Sequence	polyreactivity (PSR sort gate)
QVQLVESGGGLVQAGGSLRLSCAASGFIFSYYAMGWYRQAPGKERELVATINFSGGRTYYADSVKGRFTISRDNEKNTVYLQMNSLKPEDTAVYYCAASFYSYTSRYPDYYYWGQGTQVTVSS	high polyreactivity
QVQHVESVGGLVQAGGSLRLSCAASGRTFGCYTMGWYRHATGTERELVAGISSSGGSTYYADSVKGRFTISRDNAKNTVYLQMNSLKPEDTAVYYCARETYPHGLYYRPYDYWGQGTQVTVSS	low polyreactivity
QVQLVESGGGLVQAGGSLRLSCAASGIIIITYAMGWYRQAPGKERELVAVISFSGGGTYADSVKGRFTISRDNAKNTVYLQMNSLKPEVTAVYYCAKYWLSALTLEDDYCGQGTQVTVSS	low polyreactivity
QVQLVESGGGLVQAGGSLRLSCAASGRTFRRYVMGGYRQAPGKERELVATITSGGRTNYADSVKGRFTISRDNAKNTVYLQMNSLKPEDTAVYYCNAVRIGLRYYYWGQGTQVTVSS	low polyreactivity
QVQLVESGGGLVQAGGSLRLSCAASGFILSNYAMGWYRQAPGKERELVAAIRWSGGSTYYADSVKGRFTISRDYAKNTVYLQMNSLKPEDTAVYYCNKVRPFSWYGLDYWGQGTQVTVSS	high polyreactivity
QVQLVESGGGLVQAGGSLRLSCAASGRIFRTYAMGWYRQAPGKERELVAAITWSGGSTYYADSVKGRFTISRDNAKNTVYLQMNSLKPEDTAVYYCNALTPGYRIYDYWGQGTQVTVSS	high polyreactivity
QVQLVESGGGLVQAGGSLRLSCAASGLIFAHYAMGWYRQAPGTERELVAGITSGGSTNYADSVKGRFTISRDNAKNTVYLQMNSLKPEDTAVYYCNADRAGFLGFYLYDYWGQGTQVTVSS	low polyreactivity
QVQLVESGGGLVQAGGSLRLSCAASGFIIAPNAMGWYRQAPGKDRELVAAISGGGSTYYADSVKGRFTISRDNAKNTVYLQMNSLKPEDTAVYYCAVAGRRGDEYDYWGQGTQVTVSS	low polyreactivity
QVQLVESGGGLVQAGGSLRLSCAASGYTFYINGMGWSRQAPGKERELVAVITWSSGSTYYADSVKGRFTISRDNAKNTVYLQMKSLKPEDTAVYYCAADVTYEDGAWTLQYDYWGQGTQVTVSA	high polyreactivity
QVQLVESGGGLVQAGGSLRLSCAASGSTFSDNAMGWYRQAPGKERELVAGITGGGGTYYADSVKGRFTISRDNAKNTVYLQMNSLKPEDTAVYYCAADTWGTPTPFVHYPEFEHWGQGTQVTVSS	low polyreactivity
QVQLVESGGGLVQAGGSLRLSCAASGFTFGGNVMGWYRQAPGTERELVAAITYSGGSTYYADSVKGRFTISRDNAKNTVYLQMNSLIPEDTAVYYCNADATDSYPEKDEHDSWGQGTQVNVSS	low polyreactivity
QVQLVETGGGLVQAGGSLRLSCAASGRTFDPNAMGWYRQAPGKERELVAAIDWTGGRTYYADSVKGRFTISRDNAKNTVYLQMNSLKPEDTAVYYCAARYYRFRSSRDYWGQGTQVTVSS	high polyreactivity
QVQLVESGGGLVQAGGSLRLSCAASGRIFRYYTMGWYRQAPGKERELVAAISGRGGRTYYADSVKGRFTISRDNAKNTVYLQMNSLKPEDTAVYYCNAYDHPIYRLDYWGQGTQVTVSS	high polyreactivity
QVQIVESGGGLVQAGGSLRLSCAASGRTFVVNAMGWYRQAPGKERELVASISNKGSTYYADSVKGRFTISRDNAKNTVYLQMNSLNPEDTAVYYCAADEYWSWDGTRYGVHYYYWGQGTQVTVSS	low polyreactivity
QVQLVESGGGLVQAGGSLRLSCAASGRTFQSNARGRARQAPGKETELVATISSDGSTYYADSVKGRFTISRDNAKNTVYLQMNSLKPEDTAVYYCAADSHPASTIGVRLDSWGQGTQVTVSS	low polyreactivity
QVQLVESGGGLVQAGGSLRLSCADSGRTFSYNTMGWYRQATGKERELVARITWGGGSTYYADSVKGRFTISRDNAKNTVYLQMNSLKPEDTAVYYCNADLRELSPWYWYSGEMDYWGQGTQVTVSS	low polyreactivity
QVQHVESGGGLVQAGGSLRLSCAASGSTFDDNTMGWYRQATGKERELVAAITRSGGSTYYADSVKGRFTISRDNAKNTVYLQMNSLKPEDTAVYYCATYPYSPYYYVYVEPYDYWGQGTQVTVSS	low polyreactivity
QVHLVESGGGLVQAGGSLRLSCAASGSIFRGYAMGWYRQAPGRERELVAAISRSGGSTYYADSVKGRFTISRDNAKNTVYLQRNSLKPEDTAGYYCAALLRGRYRMYYWGQGTQVTVSS	high polyreactivity
QVQLEESGGGLVQAGGSLRLSCAASGSIFGNAMGWYRQAPGKEREFVAAISSSGSSTYYADSVKGRFTISRDNAKNTVYLQMNSLKPEDTAVYYCAKRRRSADPKYDYWGQGTQVTVSS	high polyreactivity
QVQLVESGGGLVQAGGSLRLSCAASGRTFGIYAMGWYRPAPGKERELVATISWRGGSTYYADSVKGRFTISRDNAKNTVYLQMNSLKPEDTAVYYCAAGYYPYWGQGTQVTVSS	low polyreactivity
QVQLVESGGGLVQAGGSLRLSCAASGSTFGVNAMGWYRQAPGKERELVAAISSSGSSTYADSVKGRFTISRDNAKNTVYLQMNSLKPEDTAVYYCNKTTLLTVEYDYWGQGTQVTVSS	low polyreactivity
QVQLVESGGGLVQAGGSLRLSCAASGIIFRSYAMGWYRQAPGKERELVAGITRVGSTYYADSVKGRFTISRDNAKNTVYLQMHSLKPEDTAVYYCNAYNYWSDDYWGQGTQVTVSS	high polyreactivity

Sequence	polyreactivity (PSR sort gate)
QVQLVESGGGLVQAGGSLRLSCAASGSTFGGNAMGWYRQAPGKERELVAAISSSGGSTYYADSVKGRFTISRDNAKYTVYLQMNSLKPEDSAVYYCAALYHWTYDYWGLGTQVTVSS	low polyreactivity
QVQLVESGGGLVQAGGSLRLSCAASGFTFNANAMGWYRQAPGKERELVADISLSGGRTYYADSVKGRFTISRDNAKNTVYLQMNSLKPEDTAVYYCAASPDGSFRRFSRVVSGDYWGQGTQVTVSS	high polyreactivity
QVQLVETGGGLVQAGGSLRLSCASSGSIFRAYAMGWYRQAPGNERELVAYISRSGGSTYYADSVKGRFTISRDNAKNTVYLQMNSLTQEDTAFYYCAAVFYLYSNLYGEYDYWGQGTQVTVSS	low polyreactivity
QVQLVESGGGLVQAGGSLRLSCAASGSTFRGYVMGWYRQAPGKERELVAVISYNGGSTYYADSVKGRFTISRDNAKNTVYLQMNSLKPEDTAVYYCAATYFFLYTSWDEYWGQGTQVTVSS	low polyreactivity
QVQLVESGGGLVQAGGSLRLSCDASGFIFDEYAMGWYRPAPGEERELVAAINWRGGSTYYADSVKGRFTISRDNAKNTVYLQMNSLKPEDTAVYYCAARNVYVWYDYWGQGTQVTVSS	low polyreactivity
QVQLVESGGGLVQAGGSLRLSCAASGPTFTPYAMGWYRPAPGKERELVAAISGGGSTNYADSVKGRFTISRDNAKNTVFLQMNSLKPEDTAVYYCAKRVYRGRRMDYWGQGTQVTVSS	high polyreactivity
QVQLVESGGGLVQAGGSLRLSCAASGRTFGVNAMGWYRQAPGKERELVARNRVSGGRTYYADSVKGRFTISRDNAKNTVYLQMNSLKPEDTAVYYFNAGYTYNRVIWPYYYWGQGTQVTVSS	high polyreactivity
QVQLVESGGGLVQAGGSLRLSCAASGSIFITYAMGWYRQAPGKERELVAAIRRGGRTNYADSVKGRFTISRDNAKNTVYLQMNSLKPEDTAVYYCAAEFRTGWPYYPDYAYDYWGQGTQVTVSS	low polyreactivity
QVQLVESGGGLVQAGGSLRLSCAASGFTFDAYTMGWYSQAPGKERELVAAITWSGGRTYYADSVKGRCTISRDNAKTTVYLQLNSLKPEDTALYNCAADSPTSLYEYWGQGTQVTVSS	high polyreactivity
QVHLQESGGGLVKAGGSLRLSCAASGNISNHNDMGWYRQAPGKEREFVAGITAGGITNYADSVKGRFTISRDNAKNTVYLQMNSLKPEDTAVYYCAASPDYAKSYGYWGQGTQATVSS	low polyreactivity
QVQLVESGGGLVQAGGSLRLSCAASGSTFRKYGMGWYRQAPGKERELVARITSSTGTTYYADSVKGRFTISRDNAKNTVYLQMNSLKPEDTAVNYCNARVRYREWGLYYYWGQGTQVTVSS	high polyreactivity
QGQLVESGGGLGQAGGSLRLSCAASGSTFGDSAMVWYRQAPGKERELVAGISARGGRTYYADSVKGRFTISRDNAKNTVYLQMNSLKPEDTAVYDCNARTGYQDGSYGNDYWGQGTQVTVSS	high polyreactivity
QVQHVESGGGLVQAGGSLRLSCAASGSIFLPYAMGWYRQAPGKQRELVAAISDRGSTYYADSVKGRFTISRDNAQNTVYLHMNSVKAEDTAVYYCAKVYLLFVGALQFDYWGQGTQVTVSS	low polyreactivity
QVQLVESGGGLVQAGGSLRLSCAASGRIFGYNAMGWYRQAPGKERELVAALSWNGGSTYYADSVKGRFTISRDNAKNTVYLQMNSLKPEDTAVYYCNADPSDRRYPHTWTKMGYWGQGTQVTVSS	low polyreactivity
QVQLVESGGGLVQAGGSLRLSCAASGSILYINAMGWYRQAPGKERELVAAITYSGGSTYYADSVKGRFTISRDNAKNTVYLQMNSLKPEDTAVYYCAADAVVAGRYDGHDYWGQGTQVTVSS	low polyreactivity
QVQLVESGGGLVQAGGSLRLSCAACGSTFHWNTMVWYRQAPGKERELVAAITYSGGRTYYADSVKGRFTISRDNAKNTVYLQMNSLKPEDTAVYYCAARYWRGSVTSYYYWGQGTQVTVSS	high polyreactivity
QVQLVESGVGLVQAGGSLRLSCAASGSIFVNYAMGWYRQAPWKERELVAAITLRGGSTFYADSVKGRFTISRDNAKNTVYLQMHSLKPEDTAVYYCAASSLRYRAYKSLFDFWGQGTQVTVSS	low polyreactivity
QLKLEESGGGLVQAGGSLRLSCAASGITFPWYAMGWYRQAPGKERELVAAINRAGNTNYADSVKGRFTISRDNAKNTVYLQRNSLKTEDTAVYYCAARWRYKYTLGYWGQGTQVTVSS	high polyreactivity
QVQLVESGGGLVQAGGSLRLSCAASGNTFRYYAMGWYRQAPGKERELVAVITTRGGSTNYADSVKGRFTISRDNAKNTVYLQMNSLKPEDTAVYYCAARPGIRSYPPGYGYWGQGTQVTVSS	low polyreactivity
QVQLVESGGGLVQAGGSLRLSCAASGSTFYRNAMGWYRQAPGKERELVAVISISDGSTYADSVKGRFTISRDNAKNTVYLQMNSLKPEDTAVYYCAKVLNPLDYYDFDYWGQGTQVTVSS	low polyreactivity
QVQLVESGGGLVQAGGSLRLRCAASGRIFRPYTMGWYRQAPGKERELVAAITSGSSTNYADSVKGRFTISRDNAKNTVYLQMNSLKPEDTAVYYCAVKVRIFASYYPFYYWGQGTQVTVSS	high polyreactivity
